B1: HMfA homodimer (Methanothermus fervidus histone HMfA) (natural protein)
chain: not shown
B2: HMfB_(D14A K30A E34A) (natural protein)
chain: not shown
B3: HMfA_(K31A E35A) (natural protein)
chain: not shown
B4: HMfB homodimer (Methanothermus fervidus histone HMfB) (natural protein)
chain: not shown

Target: the molecule itself
Assay: magnetic tweezers force spectroscopy

Protein	stacking energy [kBT]
B1	1.81
B2	1.07
B3	1.18
B4	3.44
